Where two headings read alike, the source gives them in different places.
Experiments:
[1] = biological target: nucleotide-binding domain of Hsp70 (Hsp70 NBD, aa 1–382) (human) (UniProt P0DMV8); experiment: ITC
[2] = biological target: nucleotide-binding domain of Hsp70 (Hsp70 NBD, aa 1–382) (human) (UniProt P0DMV8); experiment: ITC; remark: listed apart in the source

Chain of UniProt P0DMV8 (P0DMV8 1-382): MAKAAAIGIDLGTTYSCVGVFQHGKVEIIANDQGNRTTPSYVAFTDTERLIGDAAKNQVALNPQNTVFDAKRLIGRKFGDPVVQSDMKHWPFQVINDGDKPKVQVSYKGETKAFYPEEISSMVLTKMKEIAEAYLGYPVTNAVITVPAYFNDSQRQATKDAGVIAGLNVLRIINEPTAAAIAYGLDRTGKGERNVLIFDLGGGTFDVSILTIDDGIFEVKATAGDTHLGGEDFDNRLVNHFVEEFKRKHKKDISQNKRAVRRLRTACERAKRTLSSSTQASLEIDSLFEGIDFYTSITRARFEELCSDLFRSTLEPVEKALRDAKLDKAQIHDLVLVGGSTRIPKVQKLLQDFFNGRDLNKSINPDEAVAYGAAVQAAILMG

Kd [1] [µM]	Kd [2] [µM]	stoichiometry N [2]	Substance
56.5	15.9	1	FAF1 (aa 1–171) (from UniProt Q9UNN5 1-171) (domain or fragment)
3.1	3.1	1	FAF1 L-UBL1 (aa 91–171) (from UniProt Q9UNN5 91-171) (domain or fragment)
